This assay addresses Wza from E. coli K30, purified DDM-solubilised octameric complex (E. coli K30). Kind of assay: cryo-EM structure.

As usually defined, the stoichiometry N is a count of units in the complex or per binding partner. The substance “Wza from E. coli K30, purified DDM-solubilised octameric complex (natural protein)” displayed a stoichiometry N of 8.

The record behind these values is article PMC3498625.
